Target: trkB-IgG immunoadhesin (human trkB extracellular domain fused to human IgG-1 Fc) (human)
Assay: competitive displacement of iodinated BDNF from trkB-IgG by unlabelled NT4/5

Chain of trkB-IgG immunoadhesin (human trkB extracellular domain fused to human IgG-1 Fc) (human) (Q16620 32-423): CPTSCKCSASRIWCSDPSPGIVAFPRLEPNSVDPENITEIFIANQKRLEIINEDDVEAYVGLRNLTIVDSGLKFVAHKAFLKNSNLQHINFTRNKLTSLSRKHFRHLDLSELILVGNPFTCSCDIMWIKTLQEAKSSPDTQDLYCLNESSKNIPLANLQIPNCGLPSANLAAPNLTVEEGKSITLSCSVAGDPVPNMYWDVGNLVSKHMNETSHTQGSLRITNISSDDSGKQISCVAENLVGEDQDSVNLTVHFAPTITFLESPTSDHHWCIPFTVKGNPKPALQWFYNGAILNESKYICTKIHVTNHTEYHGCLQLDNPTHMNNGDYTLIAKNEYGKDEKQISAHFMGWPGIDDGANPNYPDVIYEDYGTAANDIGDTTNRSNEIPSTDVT

IC50: 0.2 nM
Substance: neurotrophin-4/5 (NT-4/5) (from UniProt P34130 81-210) (ligand)

Reference: patent US20040058416A1
